Data reported in patent KR20210053410A.

Biological target: 개 인플루엔자 바이러스 H3N2 (Canine influenza virus H3N2)
Test: cell-based or functional assay

B1: 개 인플루엔자 바이러스 단일클론항체 3E2 (antibody, V domains shown)
VH: EVKLVESGGGLVQPGGSLRLSCATSGFTFTDYYMSWVRQPPGKALEWLGFIRNKANGYTTEYSASVKGRFTISRDNSQSILYLQMNTLRPEDSATYYCARDTPVARGVCLLGQGTLVTVSA
VL: DIVMTQSPSSLAVSAGEKVTMSCKSSQSLLNSRTRQNYLAWYQQKPGQSPKLLIYWASTRESGVPDRFTGSGSGTDFTLTISSVQAEDLAVYYCKQSYSLWTFGGGTKLEIK
B1 was tested, and the HI titer (3E2 mAb 하이브리도마 상층액) was 128 and the HI titer (3E2 mAb) was 131000.
